System: heptanedioyl-ACP methyl ester
Test: Cell lysate in vitro thioesterase screen (DTNB, absorbance at 410 nm) on heptanedioyl-ACP methyl ester
Format: biochemical
Conditions: 0.33 mM acyl-ACP substrate, 30° C., 30 min

| Molecule | activity toward heptanedioyl-ACP methyl ester (hydrolysis) |
| --- | --- |
| SEQ ID NO: 75: Clostridium thermocellum thioesterase (protein, listed as Clostridium thermocellum, Clostridium thermocellum (strain ATCC 27405 / DSM 1237 / NBRC 103400 / NCIMB 10682 / NRRL B-4536 / VPI 7372), Clostridium thermocellum thioesterase) MQKKRFSKKYEVHYYEINSMQEATLLSLLNYMEDCAISHSTSAGYGVNELLAADAGWVLYRWLIKIDRLPKLGETITVQTWASSFERFYGNREFIVLDGRDNPIVKASSVWIYFNIKKRKPMRIPLEMGDAYGIDETRALEEPFTDFDFDFEPKVIEEFTVKRSDIDTNSHVNNKKYVDWIMETVPQQIYDNYKVTSLQIIYKKESSLGSGIKAGCVIDEQNTDNPRLLHKIWDKNTGLELVSAETIWQKIQS | notable for their activity toward heptanedioyl-ACP methyl ester |
| SEQ ID NO: 76: Thermovirga lienii thioesterase (protein, listed as Thermovirga lienii, Thermovirga lienii (strain ATCC BAA-1197 / DSM 17291 / Cas60314), Thermovirga lienii thioesterase) MYEHNFRISYSQAGALGRLKLTGAMNLCQDIADDHAERVGVSVADLLKQSKTWVLHRFKMTIQTMPQRGDLVTIKTWYRPEKNLYSLRNFEMLDCNGKKLLSVQTSWVVVDMNRGRPLRLDRVMPEAYDKNKDENLEVSFQELLLPEKVDVKKTIQVAVTDLDMNFHVNNVHYLRWALDTIPVEILKEYKPKGVEIAFKRPAFYGDSVISEVGIDKNSCSILCRHHIYGEKDGQSMAVISTEWEKISREER | notable for their activity toward heptanedioyl-ACP methyl ester |
| SEQ ID NO: 89: Clostridium cellulolyticum thioesterase (protein, listed as Clostridium cellulolyticum, Clostridium cellulolyticum (strain ATCC 35319 / DSM 5812 / JCM 6584 / H10), Clostridium cellulolyticum thioesterase) MEPLSIYKKNYHVDYGDADFYKRLKLSYLFNYFQNIAGLHSENTNVGIRKLQNDYGAAWVMTRMLMDINRMPECNEEISIETWPVEPKKKMIDRNFIVRDMDGSILASAISTWVILDMEKREMVRIDSVIPPQYPEFLKSKAIDRKFDKLKPSGQLQPAYKKLVGFSDIDINGHVNNAKYIDYILDCFTVEKHGEYRVKSIQINYVNEAVAGDIISLYKDTVDMDGSDKAVYITGINEVDGKVNFESHIRVQ | notable for their activity toward heptanedioyl-ACP methyl ester |
| SEQ ID NO: 94: Paenibacillus sp. IHBB 10380 thioesterase (protein, Paenibacillus sp. IHBB 10380, Paenibacillus sp; IHBB 10380 thioesterase) MGNIWTEEHLIYSNEIDYKANCRLSNLLSLMQRAADGDVEHMGGTRDQMVAHHLGWMLTTIDLACERMPIFNETLKITTWNKGTKGPLWLRDFRIFDENNQEIAKACTLWALVDIDKRKVLRPSAYPFNINSNHEDSVGPVPDKLNISDEVELYHSYSITVRYSGIDSNGHLNNSRYADLCMDTLTQSELDTLSILGFHITYYHEVKSAEQIQVLRSDHLEGYIYFRGQSLEDERYFEACLHVG | notable for their activity toward heptanedioyl-ACP methyl ester |
| SEQ ID NO: 92: Treponema primitia thioesterase (protein, Treponema primitia (strain ATCC BAA-887 / DSM 12427 / ZAS-2), Treponema primitia thioesterase) MDVWKESYPVGFTAVDESEGLTLAAAFDYFQEAARRHAEVLGVGQEPMVQAGQGWVLSRISVLVERRPRQGELITVSTWPRGWEKLFALRDFDIRDESDKPIVRARSCWLIVNIEKRRPLRPQATMEKLPLNEGRDALPGGGVGLAPLENLLKAGDRVAAYSDIDYNGHVNNARYVQWVQDIADPTALVQAKTLRLDINYLSEVKIHEPIELWTEPLPAESDAVYTLGVEGRRNGGAVFRAELRIKD | notable for their activity toward heptanedioyl-ACP methyl ester |
| SEQ ID NO: 60: Escherichia coli thioesterase (protein, Escherichia coli (strain K12), Escherichia coli thioesterase) MNTTLFRWPVRVYYEDTDAGGVVYHASYVAFYERARTEMLRHHHFSQQALMAERVAFVVRKMTVEYYAPARLDDMLEIQTEITSMRGTSLVFTQRIVNAENTLLNEAEVLVVCVDPLKMKPRALPKSIVAEFKQ | notable for their activity toward heptanedioyl-ACP methyl ester |
| SEQ ID NO: 93: Oceanimonas sp. thioesterase (protein, Oceanimonas sp. (strain GK1), Oceanimonas sp. thioesterase) MLRILVLLLCLVSPTVLADTLLILGDSLSAGYRMRSDQAWPHLLAEQWRREGRQVTVINASVSGDTTQGGLQRLPPLLQRHQPSLVLLELGGNDGLRGLPPGLIERNLERLIALAGDAGARVILTDIQLPPNYGRRYLQQFEQVFSRLASQHQLPLLPFFVAPLMGEQGMMMDDGIHPTVKAQPLIARQVGEFLTPYLTP | notable for their activity toward heptanedioyl-ACP methyl ester |
| SEQ ID NO: 61: Congregibacter litoralis KT71 thioesterase (protein, Congregibacter litoralis KT71, Congregibacter litoralis KT71 thioesterase) MGLLLGLALLLTGQLARAESTAGERPRILVVGDSISAAYGMSLEQGWAALLERRLQTRWPGAQVINASISGDTSAGGARRLPKLLAEHSPDLVVIELGGNDGLRGYPTSKLEANLSFMAEAASTAGAEVLILPMEIPPNYGPRYTRSFRESFERAATDTGATLGPFLLDGIATEEQLMQQDGIHPTVEAQPMITDIVQPVIEALLALREAS | notable for their activity toward heptanedioyl-ACP methyl ester |

System: heptanedioyl-ACP methyl ester
Test: not given
Format: cell-based, Escherichia coli
Conditions: top 150 hits screened in vivo

| Molecule | activity toward heptanedioyl-ACP methyl ester in vivo |
| --- | --- |
| SEQ ID NO: 75: Clostridium thermocellum thioesterase (protein, listed as Clostridium thermocellum, Clostridium thermocellum (strain ATCC 27405 / DSM 1237 / NBRC 103400 / NCIMB 10682 / NRRL B-4536 / VPI 7372), Clostridium thermocellum thioesterase) MQKKRFSKKYEVHYYEINSMQEATLLSLLNYMEDCAISHSTSAGYGVNELLAADAGWVLYRWLIKIDRLPKLGETITVQTWASSFERFYGNREFIVLDGRDNPIVKASSVWIYFNIKKRKPMRIPLEMGDAYGIDETRALEEPFTDFDFDFEPKVIEEFTVKRSDIDTNSHVNNKKYVDWIMETVPQQIYDNYKVTSLQIIYKKESSLGSGIKAGCVIDEQNTDNPRLLHKIWDKNTGLELVSAETIWQKIQS | showed activity toward heptanedioyl-ACP methyl ester |
| SEQ ID NO: 76: Thermovirga lienii thioesterase (protein, listed as Thermovirga lienii, Thermovirga lienii (strain ATCC BAA-1197 / DSM 17291 / Cas60314), Thermovirga lienii thioesterase) MYEHNFRISYSQAGALGRLKLTGAMNLCQDIADDHAERVGVSVADLLKQSKTWVLHRFKMTIQTMPQRGDLVTIKTWYRPEKNLYSLRNFEMLDCNGKKLLSVQTSWVVVDMNRGRPLRLDRVMPEAYDKNKDENLEVSFQELLLPEKVDVKKTIQVAVTDLDMNFHVNNVHYLRWALDTIPVEILKEYKPKGVEIAFKRPAFYGDSVISEVGIDKNSCSILCRHHIYGEKDGQSMAVISTEWEKISREER | showed activity toward heptanedioyl-ACP methyl ester |

System: not listed separately
Test: In vivo carboxylate reductase screening, substrate consumption by LC-MS, monomethyl heptanedioate
Format: cell-based, Escherichia coli
Conditions: 541 enzymes screened in vivo
Description: To screen carboxylate reductases in vivo, […] T7- pUC expression vectors was co-transformed into T7 Express lysY/Iq with the phosphopantetheinyl transferase sfp from Bacillus subtilis on a T7-pCDF expression vector. Biological duplicates of the resulting strains were incubated in 0.5 mL of terrific broth containing either 1 g/L heptanedioate or 1 g/L monomethyl heptanedioate and supplemented with 0.4 mM IPTG in 96-well deep well plates. The plates were incubated for 30 h at 30° C. in a shaking incubator. The cells were then pelleted, and culture supernatants from the same strains in media containing either heptanedioate or monomethyl heptanedioate were combined. The combined supernatants were analyzed by LC-MS to determine the concentration of heptanedioate and monomethyl heptanedioate. Carboxylate reductase activity on heptanedioate or monomethyl heptanedioate was reflected by consumption of the respective substrate in the medium.

| Molecule | monomethyl heptanedioate activity |
| --- | --- |
| SEQ ID NO: 208: Ascaris suum carboxylate reductase (protein, listed as Ascaris suum) MRYWWKTSHSNYKLDAVCDINNQTRELPVSVASCKDGSRVAACLDGDHLAPFIHEDALTLYEGVRRGLRVSNNGPMLGYRKKQPDGSEPYVWLTYKEVIDRAVDFAYGLLDVGIPAGQKTFIGVYAKNRPEWVIAEQGTYNNNSVLVPLYETLGPDACTFIINQSEMSMVICDTEVKAAGLLKEKENIPTLKYLVVMEDYTNGLREAAAREGVYVYHFLDIEKRGREFVNKPALQIPSPGDVCTICYTSGTTGAPKGVMLTHGNVIAAATALTFVRNINFCETDVVISFLPLAHMFERLLECIIFQTGAHVGFFSGDIRRLPEDIKELRPTVIPLVPRVLNRIYDKVMSEVNKSFIKKAVFHFALAFKVRELRNGIVRNDSVFDKLVFNKIRDAMGGRVKLMVTGSAPLAEKVMTFARAAMGCVVLEGYGQTECAAASTLGIEADTRAGHVGIPSICNAVKLVDVPELEYYAKDMVGEVCIRGFNVFKGYYKNDELTREVLDDQGWLHTGDVGRWTENGTLQIIDRKKHIFKLSQGEYVAPEKIEGIYARSKYVAQSFVHGESLKTCLVGVIVPDPEALERVAAERFGLKDVKLKELCSNEAVRQLILEDITAVGKKAGLFSFEQVKDIFLTPDAFSVGNDLLTPTLKNKRPKLKEHFAAQLESMYSKLN | most monomethyl heptanedioate activity |
| SEQ ID NO: 207: Dictyostelium discoideum carboxylate reductase (protein, listed as Dictyostelium discoideum) MINNWLAVGLLVVSGILAFNWKRKHPYGQTVEIGEKPENGGRIRRNSACADHLISFLEDDEIYTLYDSLVKSCKKYGERKCFGERKKDSNGNLGKFEWISYNTYLERCEYIQQGLCELGLKPKSKVGIFSKNRLEWLIVHSASFIQSYCVVSFYETLGVESLSYVTEHAEIGLAFCSAETLQKTLDIAKGVKVLKTIICFDSIDKEHYNIAKELGVTLYTYDEIMKKGKEANGKHKHTPPTPDTLSTIMYTSGTTGPPKGVMITHKNLTSVVCAVSDFIKVYDTDVHYSYLPYAHVLERVVILAAFHFGAAIGIFSGDISNILVEVKLLSPTLFIGVPRVFERIKTNVFKEISKKPALLRTLFNGAYNLKYLSIQHGFKLPIIEKVLDLVFFSKIKQALGGKVRVILSGSAPLSFDTEVFLRVVMCCCVLQGYGASEGCGGDACKRLDDESVGTIGPPFASNEIKLVDVPELGYDSNGEVQTGEVCLRGPSISSGYYKDEEKTREEFKDGWFHTGDIGRWNRDGSLSIVDRKKNIFKLSQGEYVAVEKIETIVVKSEYVEQVCIYGDSQKSCVIAIIHPHPESCSEWAGSKKTDKDIKEICKNQDFIKVVLDDIIKNCKKSGLHGFEIPKAIHLTPEAFSDQNNLLTPSFKLKRHEIKKYFEDEIKKLYSKLD | most monomethyl heptanedioate activity |
